According to patent US20110293610A1 (published 2011):

B1: I075F12 (scFv)
scFv: QVQLVQSGAEVKKPGSSVKVSCKASGGTVSSRTISWVRQAPGQGLEWMGGSLPPSGAPIYAQKFQGRVAITADALTNTAFMELRSLKSDDTAVYYCARDQGRYLDLWGQGTMVTVSSGGGGSGGGGSGGGGSAQAVLTQPSSASGTPGQRATISCSGSSSDIGINAVNWYKQLPRTAPKLLIYRNNQRPSGVPDRFSGSKSGTSASLAIIGLQSEDEADYYCATWDDSLTAYVFGTGTKVTVLG
B2: I075G01 (scFv)
scFv: QVQLVQSGAEVKKPGASVKVSCKTSGYTFTGYNINWVRQAPGQGLEWMGWVSPSNGDTSYAQTFQGRVTMTRDTSISTAYMELSSLKSDDTAVYYCARDHFDTLTGYFRRLDSWGQGTLVTVSSGGGGSGGGGSGGGGSALSSELTQDPEVSVALGQTVTITCQGDSLITHYASWFQQKPGQAPLLVFYSKDKRPSGIPDRFSGSYSGNTASLTITGAQAEDEADYYCNSRDSRGKNHVAFGGGTKLTVLG
B3: I030A10 (scFv)
scFv: QVQLVQSGAEVKKPGSSVKVSCRASGGSFNHAISWVRQAPGRGLEWMGGILPMYGTANYAQKFQGRVTITADKLTNTVYMDLSRLRYEDTAVYYCARELGLSIVGATTGALDMWGRGTLVTVSSGGGGSGGGGSGGGGSAQAVLTQPSSVSGAPGQRVIISCTGSSSNIGPDYDVHWYQQLPGTAPKLLIYGNNNRPSGVPDRFSGSKSGTSASLAITGLQAEDEAHYYCQSYGSSLSGVVFGGGTKVTVLG
B4: I068B04 (scFv)
scFv: QVQLVQSGAEVKKPGSSVKVSCKASGGTVSSRTISWVRQAPGQGLEWMGGSLPPSGAPIYAQKFQGRVAITADALTNTAFMELRSLKSDDTAVYYCARDQGRYLDLWGRGTLVTVSSGGGGSGGGGSGGGGSALPVLTQPPSASATPGQRVTISCSGSSSNIGSNYVYWYQQLPGTAPKVLIYRNNQRPSGVPDRFSGSRSGTSASLAISGLRSEDEADYYCATWDDSLSGPVFGGGTKVTVLG
B5: I065D08 (scFv)
scFv: GVQLVQSGAEVKKPGASVKVSCKASGYTFTSYGISWVRQAPGQGLEWMGWISAYNGNTNYAQKLQGRVTMTTDTSTSTAYMELRSLRSDDTAVYYCARTPSSVYDLLTGYYHYFYSYMDVWGRGTMVTVSSGGGGSGGGGSGGGGSQSVLTQPASVSGSPGQSITISCTGTSSDVGGYNYVSWYQQHPGEAPKLMIYEGSKRPSGVSNRFSGSKSGNTASLTISGLQAEDEADYYCSSYTTRSTRVFGGGTKLTVLG
B6: I003C06 (scFv)
scFv: QVQLVQSGAEVKKPGSSVKVSCRASGGSFNHAISWVRQAPGRGLEWMGGILPMYGTANYAQKFQGRVTITADKLTNTVYMDLSRLRYEDTAVYYCARELGLSIVGATTGALDMWGKGTLVTVSSGGGGSGGGGSGGGGSALPVLTQPPSVSVAPGQTATLTCGGTNFGRQSVHWYQQKPGQAPVLAIYHDDVRPSGIPERLSGSKSGNTATLTISRVEAGDEAAYYCQVWDSGSDVVVFGGGTKLTVLG
B7: I078D02 (scFv)
scFv: QVQLQQSGAEVKKPGASVKVSCKASGYTFTSYGISWVRQAPGQGLEWMGWISAYNGNTNYAQKLQGRVTMTTDTSTSTAYMELRSLRSDDTAVYYCARVYYDILTGYNLFFDYWGKGTMVTVSSGGGGSGGGGSGGGGSQSVLTQPASVSGSPGQSITISCTGTSSDVGGYNYVSWYQQHPGKAPKLMIYEGSKRPSGVSNRFSGSKSGNTASLTISGLQAEDEADYYCSSYTTRSTRVFGGGTKLTVLG
B8: I078H08 (scFv)
scFv: QVQLVQSAAEVKKPGASVKVSCKASGYTFTSYGISWVRQAPGQGLEWMGWISAYNGNTNYAQKLQGRVTMTTDTSTSTAYMELRSLRSDDTAVYYCARVYYDILTGYNLFFDYWGRGTTVTVSSGGGGSGGGGSGGGGSQSVLTQPASVSGSPGQSITISCTGTSSDVGGYNYVSWYQQHPGKAPKLMIYEGSKRPSGVSNRFSGSKSGNTASLTISGLQAEDEADYYCSSYTTRSTRVFGGGTKLTVLG
B9: I026C04-R (scFv)
scFv: QVQLVQSGAEVKKPGSSVKVSCRASGGSFNRHAISWVRQAPGRGLEWMGGILPMYGTANYAQKFQGRVTITADKLTNTVYMDLSRLRYEDTAVYYCARELGLSIVGATTGALDMWGKGTLVTVSSGGGGSGGGGSGGGGSAQSVLTQPPSVSAAPGQKVTISCSGSSSNIGNNYVSWYQQIPGTAPKLLIYENNKRPSGIPDRFSGSKSGASATLDITGLQTGDEADYYCGTWHSSQVVFGGGTKLTVLG
B10: I069B07 (scFv)
scFv: QVQLVQSGAEVKKPGASVKVSCKASGYTFTSYGISWVRQAPGQGLEWMGWISAYNGNTNYAQKLQGRVTMTTDTSTSTAYMELRSLRSEDTAVYYCARMEYDILTGYYGGYFDYWGQGTMVTVSSGGGGSGGGGSGGGGSQSVLTQPASVSGSPGQSITISCTGTSSDVGGYNYVSWYQQHPGKAPKLMIYEGSKRPSGVSNRFSGSKSGNTASLTISGLQAEDEADYYCSSYTTRSTRVFGGGTKLTVLG
B11: I002A01-R (scFv)
scFv: QVQLVQSGAEVKKPGSSVKVSCRASGGSFNRHAISWVRQAPGRGLEWMGGILPMYGTANYAQKFQGRVTITADKLTNTVYMDLSRLRYEDTAVYYCARELGLSIVGATTGALDMWGKGTLVTVSSGGGGSGGGGSGGGGSALPVLTQPPSVSVAPGQTATLTCGGTNFGRQSVHWYQQKPGQAPVLAIYHDDVRPSGIPERLSGSKSGNTATLTISRVEAGDEAAYYCQVWDSGSDVVVFGGGTKLTVLG
B12: I002A01-K (scFv)
scFv: QVQLVQSGAEVKKPGSSVKVSCRASGGSFNKHAISWVRQAPGRGLEWMGGILPMYGTANYAQKFQGRVTITADKLTNTVYMDLSRLRYEDTAVYYCARELGLSIVGATTGALDMWGKGTLVTVSSGGGGSGGGGSGGGGSALPVLTQPPSVSVAPGQTATLTCGGTNFGRQSVHWYQQKPGQAPVLAIYHDDVRPSGIPERLSGSKSGNTATLTISRVEAGDEAAYYCQVWDSGSDVVVFGGGTKLTVLG
B13: I068F03 (scFv)
scFv: EVQLVQSGADVKKPGASVKVSCKASHYPFTTYGVSWVRQAPGQGLEWMGWISNYNGHTRYAPKFQGRVTLTTDTLTNTAFMELKSLTSDDTAIYYCARAGNEYGHTERPADYWGKGTMVTVSSGGGGSGGGGSGGGGSAQAVLTQPSSVSGAPGQRVTISCTGSSSNIGAGYDVHWYQQLPGTTPKLLISRNNNRPPGVPDRFSGSKSGTSASLAITGLQAEDEADYYCQSYDTTLRGWVFGGGTKVTVLG
B14: I075A02 (scFv)
scFv: QVQLVQSGAEVKKPGSSVKVSCRASGGSFNHAISWVRQAPGRGLEWMGGILPMYGTANYAQKFQGRVTITADKLTNTVYMDLSRLRYEDTAVYYCARELGLSIVGATTGALDMWGRGTLVTVSSGGGGSGGGGSGGGGSAQSVVTQPPSASGTPGQRVTVSCSGGRSNIGSNTVSWYQQLPGTAPKLLIYSNDERPSGVPDRFSGSNSGTSASLAISGLQSEDEADYYCAAWDDSLNGVAFGGGTKLTVLG
B15: I078D08 (scFv)
scFv: QVNLRESGGGLVQPGGSLRLSCAASGFTFSSYWMSWVRQAPGKGLEWVANIKQDGSEKYYVDSVKGRFTISRDNSKNTLYLQMNSLRAEDTAVYYCARDAQSYYDILTGYQSYAFDIWGQGTTVTVSSGGGGSGGGGSGGGGSSELTQDPAVSVALGQTVRITCQGDSLRSYYTNWFQQKPGQAPLLVVYAKNKRPSGIPDRFSGSSSGNTASLTITGAQAEDEADYYCHSRDSSGNHVLFGGGTKLTVLG
B16: I065F08 (scFv)
scFv: QVQLQQSGAEVKKPGSSVKVSCKASGDTFSSFGISWVRQVPGQGLEWMGAIIPKFDIVTYAEEFKGRVTISADKLTNTAYMEVKSLRSEDTAVYYCTREKSAAGYFDYWGKGTLVTVSSGGGGSGGGGSGGGGSDIVMTQSPSTLSASVGDRVTITCRASQGISSWLAWYQQKPGRAPKVLIYKASTLESGVPSRFSGSGSGTDFTLTISSLQPEDFATYYCQQSYSTPWTFGQGTKLEIKR
B17: I072B09 (scFv)
scFv: QVQLQQSGAEVKKPGASVKVSCRASGYTFTKYTMHWVRQAPGQGPEWMGWINGGSGDTKYSRKFQGRVTITKDTSASAAYMELSSLGSEDTALYYCARATYDPLTGYSFDGFDIWGQGTLVTVSSGGGGSGGGGSGGGGSSELTQDPAVSVALGQTVRITCQGDSLRSYYTNWFQQKPGQAPLLVVYAKNKRPSGIPDRFSGSSSGNTASLTITGAQAEDEADYYCNSRDSSGNHVVFGGGTKLTVLD
B18: I064C04 (scFv)
scFv: QVQLVQSGAEVKKPGASVKVSCEASGYTFTSYGISWVRQAPGQGLEWMGWISTYNGNTRYPQKLQGRVTMTTDTSTSTAYMDLRSLRSDDTAVYYCARDGRLSYDILTGYYARDYYGMDDWGRGTMVTVSSGGGGSGGGGSGGGGSQSVLTQPASVSGSPGQSITISCTGTSSDVGGYNYVSWYQQHPGKAPKLMIYEGSKRPSGVSNRFSGSKSGNTASLTISGLQAEDEADYYCSSYTTRSTRVFGGGTKLTVLG
B19: I068C08 (scFv)
scFv: QVQLQQSGAEVKKPGSSVKVSCQASGGSFSREGISWVRQAPGHGLEWMGRIIPVLGVADYAQKFQGRVKISVDRLTSVAYMELTSLRFEDTAVYYCAREGMNDFINSHHYYTMDAWGQGTLVTVSSGGGGSGGGGSGGGGSAQAVLTQPSSVSGAPGQRVTISCTGSSSNIGAGYDVHWYQQLPGTAPKLLIYGNSNRPSGVPDRFSGSKSGTSASLAITGLQAEDEADYYCQSYDSSLSGSVFGGGTKLTVLG

biological target: T1, biotinylated B Lymphocyte Stimulator, soluble form (human, UniProt Q9Y275 134-285, biotinylated with NHS-biotin, molar ratio 20:1 biotin:protein); experiment: phage scFv, receptor binding inhibition on IM9 cells
T1 construct: also called bio-B Lymphocyte Stimulator; free B Lymphocyte Stimulator
Experimental: All of the unique phage scFvs from panel 2 were assessed for their ability to inhibit B Lymphocyte Stimulator binding to its cognate receptor on IM9 cells. The biotinylation of B Lymphocyte Stimulator, maintenance of IM9 cells and receptor binding inhibition assay were performed as described in Example 3.

Binding result, binds:
B1
B2
B3
B4
B5
B6
B7
B8
B9
B10
B11
B12
B13
B14
B15
B16
B17
B18
B19
